A word on the Kd: it is the equilibrium constant for the complex coming apart. Broadly, the koff is the first-order rate constant of dissociation. One may read the kon as a measure of how fast the partners come together.

Where “and” joins values, the source holds several entries; their conditions need not be identical. Equal values may be shown once.

The text below walks through data of patent US20220119534A1 (DRAGONFLY THERAPEUTICS, published 2022).

Assay [1] has as its target T1, Cynomolgus CD64 (FcγRI) (cynomolgus monkey, UniProt A0A2K5U901 33-309, Biotinylated and captured on the CAP chip (p-1094); the biotin site is not stated.).
T1 construct: Bought recombinant receptor; also called cFcγRI; Cynomolgus FcγRI; not shown: The vendor's biotinylation and purification tag (ACRO FCA-C82E8)
As to the kind of experiment: SPR 25C, biotinylated cyno CD64 captured on CAP chip.

The target in assay [2] is T2, Human CLEC12A expressed on cells (Ba/F3-hCLEC12A, PL21, HL60) (human, UniProt Q5QGZ9 1-265).
T2 sequence: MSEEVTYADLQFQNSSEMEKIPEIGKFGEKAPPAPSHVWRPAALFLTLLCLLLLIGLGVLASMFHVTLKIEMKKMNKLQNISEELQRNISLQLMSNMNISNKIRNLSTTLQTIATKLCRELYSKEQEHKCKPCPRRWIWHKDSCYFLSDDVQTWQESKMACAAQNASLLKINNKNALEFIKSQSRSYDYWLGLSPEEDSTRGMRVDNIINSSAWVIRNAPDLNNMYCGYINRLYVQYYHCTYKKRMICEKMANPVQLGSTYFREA
In words: cell-based or functional assay.

In assay [3] the target is T3, mFc-hNKG2D (recombinant mFc-tagged human NKG2D dimer) (human, UniProt P26718 73-216).
T3 construct: extracellular domain; Made in house; not shown: mouse Fc tag
T3 sequence (looked up): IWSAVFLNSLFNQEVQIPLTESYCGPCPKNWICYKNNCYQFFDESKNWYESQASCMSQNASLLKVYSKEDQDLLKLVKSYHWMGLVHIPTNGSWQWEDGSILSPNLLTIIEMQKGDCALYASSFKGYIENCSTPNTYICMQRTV
As to the kind of experiment: SPR; control sample. For orientation: Surface plasmon resonance follows binding to a sensor surface in real time, without labels.

In assay [4] the target is T4, Human CD16a V158 (FcγRIIIa V158) (human, UniProt P08637 17-208, biotinylated).
T4 construct: Bought recombinant receptor; also called hCD16aV; hFcγRIIIa V158
As to the kind of experiment: SPR; control sample.

The target of assay [5] is T5, Human CLEC12A-His (recombinant, K244 WT) (human, UniProt Q5QGZ9 65-265).
T5 construct: Made in house (Dragonfly Tx); also called hCLEC12A; hCLEC12A-His; not shown: His tag
T5 sequence: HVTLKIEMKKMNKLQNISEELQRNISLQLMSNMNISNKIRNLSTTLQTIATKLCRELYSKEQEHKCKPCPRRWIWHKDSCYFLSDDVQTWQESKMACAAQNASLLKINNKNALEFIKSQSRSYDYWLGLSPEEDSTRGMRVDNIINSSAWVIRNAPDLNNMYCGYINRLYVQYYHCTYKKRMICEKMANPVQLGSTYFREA
As to the kind of experiment: SPR, two-state fit (kd1); after 4 wks 40C in HST pH 6.0.

Assay [6] concerns the target T5, Human CLEC12A-His (recombinant, K244 WT). In words: SPR, two-state fit; control (fully purified protein study).
The target in assay [7] is T4, Human CD16a V158 (FcγRIIIa V158). As to the kind of experiment: SPR 25C, average.
For assay [8], the target named is T6, recombinant human CD16a F158 (human, UniProt P08637 17-208).
T6 construct: also called FcγRIIIa F158
As to the kind of experiment: SPR, summary table.

Assay [9] concerns the target T7, recombinant human CD64 (human, UniProt P12314 16-288, biotinylated).
T7 construct: also called hFcγRI; hCD64
As to the kind of experiment: SPR, summary table.

In assay [10] the target is T8, recombinant human CD32a R131 (human, UniProt P12318 36-218, limits assumed, biotinylated).
T8 construct: also called FcγRIIa R131
T8 sequence (looked up): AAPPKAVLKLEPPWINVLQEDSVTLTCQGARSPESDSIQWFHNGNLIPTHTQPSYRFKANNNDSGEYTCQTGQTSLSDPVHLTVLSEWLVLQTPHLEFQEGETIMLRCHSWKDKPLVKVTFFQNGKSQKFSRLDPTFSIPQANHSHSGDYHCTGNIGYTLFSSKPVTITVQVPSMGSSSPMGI
As to the kind of experiment: SPR, summary table.

The target in assay [11] is T9, recombinant cynomolgus CD16 (cynomolgus monkey, UniProt Q8SPW2 17-208, biotinylated).
T9 construct: also called cFcγRIII; cyno CD16
As to the kind of experiment: SPR, summary table.

The target of assay [12] is T10, recombinant human CD16b (human, UniProt O75015 17-200, limits assumed, biotinylated).
T10 construct: also called FcγRIIIb
As to the kind of experiment: SPR, summary table.

The target of assay [13] is T11, recombinant human CD16a V158 (human, UniProt P08637 17-208, biotinylated).
T11 construct: also called FcγRIIIa V158; hCD16aV
As to the kind of experiment: SPR, summary table.

Assay [14] concerns the target T12, recombinant human CD32a H131 (human, UniProt P12318 36-218, limits assumed, biotinylated).
T12 construct: also called FcγRIIa H131
T12 sequence (looked up): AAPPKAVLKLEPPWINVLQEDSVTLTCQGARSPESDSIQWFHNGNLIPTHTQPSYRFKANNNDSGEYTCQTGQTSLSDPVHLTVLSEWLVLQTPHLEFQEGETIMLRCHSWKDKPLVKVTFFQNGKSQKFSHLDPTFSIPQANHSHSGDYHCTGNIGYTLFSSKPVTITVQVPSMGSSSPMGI
As to the kind of experiment: SPR, summary table.

Assay [15] deals with T13, recombinant human CD32b (human, UniProt P31994 46-217, limits assumed, biotinylated).
T13 construct: also called FcγRIIb
T13 sequence (looked up): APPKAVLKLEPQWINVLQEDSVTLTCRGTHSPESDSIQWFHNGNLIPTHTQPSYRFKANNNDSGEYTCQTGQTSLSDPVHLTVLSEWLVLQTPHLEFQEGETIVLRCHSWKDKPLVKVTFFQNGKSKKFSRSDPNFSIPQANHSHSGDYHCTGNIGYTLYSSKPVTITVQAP
In words: SPR, summary table.

Assay [16] has as its target T14, recombinant human CLEC12A-His (human, UniProt Q5QGZ9 65-265).
T14 construct: also called hCLEC12A-His; hCLEC12A
T14 sequence: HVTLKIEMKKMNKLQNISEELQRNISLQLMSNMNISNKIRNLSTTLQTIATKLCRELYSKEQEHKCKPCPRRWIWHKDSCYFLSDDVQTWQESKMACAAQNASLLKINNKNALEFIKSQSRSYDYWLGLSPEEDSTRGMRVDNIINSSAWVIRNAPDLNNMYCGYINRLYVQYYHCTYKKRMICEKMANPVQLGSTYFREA
In words: SPR 37C, average.

T4 sequence (P08637 17-208 F176V limits assumed): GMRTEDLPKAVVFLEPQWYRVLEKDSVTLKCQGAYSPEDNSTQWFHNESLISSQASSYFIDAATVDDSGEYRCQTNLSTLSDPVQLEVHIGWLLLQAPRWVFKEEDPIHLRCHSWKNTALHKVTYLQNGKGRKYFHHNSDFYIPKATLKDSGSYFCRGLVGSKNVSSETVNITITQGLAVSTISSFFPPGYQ
T1 sequence (A0A2K5U901 entry or part of it limits assumed): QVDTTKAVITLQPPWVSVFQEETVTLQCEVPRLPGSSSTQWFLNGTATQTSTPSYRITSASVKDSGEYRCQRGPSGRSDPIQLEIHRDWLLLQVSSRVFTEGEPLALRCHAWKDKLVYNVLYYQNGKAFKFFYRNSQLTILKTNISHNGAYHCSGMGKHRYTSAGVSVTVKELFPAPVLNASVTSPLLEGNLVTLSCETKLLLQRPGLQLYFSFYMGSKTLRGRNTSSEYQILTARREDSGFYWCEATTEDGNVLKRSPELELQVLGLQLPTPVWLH
T11 sequence (P08637 17-208 F176V limits assumed): as the sequence (P08637 17-208 F176V limits assumed) above
T10 sequence (O75015 17-200 limits assumed): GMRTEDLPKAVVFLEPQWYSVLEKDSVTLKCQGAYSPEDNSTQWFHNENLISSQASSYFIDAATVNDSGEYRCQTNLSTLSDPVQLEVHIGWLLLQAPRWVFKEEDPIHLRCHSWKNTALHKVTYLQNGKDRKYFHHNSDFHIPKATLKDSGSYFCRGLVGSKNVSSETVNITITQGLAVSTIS
T7 sequence (P12314 16-288 limits assumed): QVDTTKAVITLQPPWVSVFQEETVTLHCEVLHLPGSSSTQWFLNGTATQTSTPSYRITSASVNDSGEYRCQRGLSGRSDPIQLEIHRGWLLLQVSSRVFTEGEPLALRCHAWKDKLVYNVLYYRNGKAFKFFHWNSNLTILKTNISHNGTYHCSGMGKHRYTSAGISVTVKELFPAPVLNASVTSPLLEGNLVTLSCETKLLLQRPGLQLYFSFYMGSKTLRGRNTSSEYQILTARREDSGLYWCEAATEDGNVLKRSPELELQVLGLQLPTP
T6 sequence (P08637 17-208 limits assumed): as the sequence (P08637 17-208 F176V limits assumed) above, with V160F counted along it
T9 sequence (Q8SPW2 17-208 limits assumed): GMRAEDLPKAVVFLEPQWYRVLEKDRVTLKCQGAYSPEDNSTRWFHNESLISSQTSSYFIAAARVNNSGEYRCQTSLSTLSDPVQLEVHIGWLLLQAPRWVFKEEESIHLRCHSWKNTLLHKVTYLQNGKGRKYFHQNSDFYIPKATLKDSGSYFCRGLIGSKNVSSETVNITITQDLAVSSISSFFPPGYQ

B1: AB0089 TriNKET (bispecific antibody, human IgG1, kappa)
chain: QLQLQESGPGLVKPSETLSLTCTVSGFSLTNYGLHWIRQPPGKCLEWIGVIWVGGATDYNPSLKSRVTISVDTSKNQFSLKLSSVQAADTAVYYCAKGDYGDTLDYWGQGTLVTVSSGGGGSGGGGSGGGGSGGGGSDIQMTQSPSSLSASVGDRVTITCHASQNINFWLSWYQQKPGKAPKLLIYEASNLHTGVPSRFSGSGSGTDFTLTISSLQPEDFATYYCQQSHSYPLTFGCGTKLEIKGSDKTHTCPPCPAPELLGGPSVFLFPPKPKDTLMISRTPEVTCVVVDVSHEDPEVKFNWYVDGVEVHNAKTKPREEQYNSTYRVVSVLTVLHQDWLNGKEYKCKVSNKALPAPIEKTISKAKGQPREPRVYTLPPCRDELTKNQVSLTCLVKGFYPSDIAVEWESNGQPENNYKTTPPVLVSDGSFTLYSKLTVDKSRWQQGNVFSCSVMHEALHNHYTQKSLSLSPG
heavy: EVQLVESGGGLVKPGGSLRLSCAASGFTFSSYSMNWVRQAPGKGLEWVSSISSSSSYIYYADSVKGRFTISRDNAKNSLYLQMNSLRAEDTAVYYCARGAPIGAAAGWFDPWGQGTLVTVSSASTKGPSVFPLAPSSKSTSGGTAALGCLVKDYFPEPVTVSWNSGALTSGVHTFPAVLQSSGLYSLSSVVTVPSSSLGTQTYICNVNHKPSNTKVDKKVEPKSCDKTHTCPPCPAPELLGGPSVFLFPPKPKDTLMISRTPEVTCVVVDVSHEDPEVKFNWYVDGVEVHNAKTKPREEQYNSTYRVVSVLTVLHQDWLNGKEYKCKVSNKALPAPIEKTISKAKGQPREPQVCTLPPSRDELTENQVSLTCLVKGFYPSDIAVEWESNGQPENNYKTTPPVLDSDGSFFLYSWLTVDKSRWQQGNVFSCSVMHEALHNHYTQKSLSLSPG
light: DIQMTQSPSSVSASVGDRVTITCRASQGISSWLAWYQQKPGKAPKLLIYAASSLQSGVPSRFSGSGSGTDFTLTISSLQPEDFATYYCQQGVSFPRTFGGGTKVEIKRTVAAPSVFIFPPSDEQLKSGTASVVCLLNNFYPREAKVQWKVDNALQSGNSQESVTEQDSKDSTYSLSSTLTLSKADYEKHKVYACEVTHQGLSSPVTKSFNRGEC
notes: F3' format heterodimer of three chains; human IgG1 Fc with EW-RVT and Y349C/S354C mutations; also called AB0089 Lot AB0089-002; CLEC12A TriNKET AB0089
Turning to B1, the equilibrium dissociation constant (Kd) is 1.5 nM and 1.8 nM and 1.2 nM in assay [1]; 797 nM in [3]; 322 nM in [4]; 0.51 nM in assay [6]; 333 nM in [7]. Also, the off-rate constant (koff) was 8.1e-05 s⁻¹ and 9.5e-05 s⁻¹ and 6.6e-05 s⁻¹ in assay [1]; 0.135 s⁻¹ in assay [3]; 0.0278 s⁻¹ in assay [4]; 0.0424 s⁻¹ in assay [5]; 0.0277 s⁻¹ in assay [7]. Further, the on-rate constant (kon) in [1] is 55000 M⁻¹ s⁻¹ and 54000 M⁻¹ s⁻¹; in [3], 169000 M⁻¹ s⁻¹; in [4] it was 86400 M⁻¹ s⁻¹; in [7] it was 83100 M⁻¹ s⁻¹. Moreover, the “EC50, KHYG1-CD16aV cytotoxicity assay, HL-60 cells; control (AB0089-002)” value in assay [2] came out at 0.04 nM. In addition, in assay [2], the “EC50, KHYG1-CD16aV cytotoxicity assay, HL-60 cells; low pH hold (AB0089-004)” value turned out to be 30 pM.

B2: F3'-1602 TriNKET (other)
chain: QLQLQESGPGLVKPSETLSLTCTVSGFSLTNYGLHWIRQPPGKCLEWIGVIWSGGKTDYNPSLKSRVTISKDTSKNQFSLKLSSVQAADTAVYYCAKYDYDDSLDYWGQGTLVTVSSGGGGSGGGGSGGGGSGGGGSDIQMTQSPSSLSASVGDRVTITCHASQNINFWLSWYQQKPGKAPKLLIYEASNLHTGVPSRFSGSGSGTRFTLTISSLQPEDIATYYCQQSHSYPLTFGCGTKLEIKGSDKTHTCPPCPAPELLGGPSVFLFPPKPKDTLMISRTPEVTCVVVDVSHEDPEVKFNWYVDGVEVHNAKTKPREEQYNSTYRVVSVLTVLHQDWLNGKEYKCKVSNKALPAPIEKTISKAKGQPREPRVYTLPPCRDELTKNQVSLTCLVKGFYPSDIAVEWESNGQPENNYKTTPPVLVSDGSFTLYSKLTVDKSRWQQGNVFSCSVMHEALHNHYTQKSLSLSPG
heavy: EVQLVESGGGLVKPGGSLRLSCAASGFTFSSYSMNWVRQAPGKGLEWVSSISSSSSYIYYADSVKGRFTISRDNAKNSLYLQMNSLRAEDTAVYYCARGAPIGAAAGWFDPWGQGTLVTVSSASTKGPSVFPLAPSSKSTSGGTAALGCLVKDYFPEPVTVSWNSGALTSGVHTFPAVLQSSGLYSLSSVVTVPSSSLGTQTYICNVNHKPSNTKVDKKVEPKSCDKTHTCPPCPAPELLGGPSVFLFPPKPKDTLMISRTPEVTCVVVDVSHEDPEVKFNWYVDGVEVHNAKTKPREEQYNSTYRVVSVLTVLHQDWLNGKEYKCKVSNKALPAPIEKTISKAKGQPREPQVCTLPPSRDELTENQVSLTCLVKGFYPSDIAVEWESNGQPENNYKTTPPVLDSDGSFFLYSWLTVDKSRWQQGNVFSCSVMHEALHNHYTQKSLSLSPG
light: DIQMTQSPSSVSASVGDRVTITCRASQGISSWLAWYQQKPGKAPKLLIYAASSLQSGVPSRFSGSGSGTDFTLTISSLQPEDFATYYCQQGVSFPRTFGGGTKVEIKRTVAAPSVFIFPPSDEQLKSGTASVVCLLNNFYPREAKVQWKVDNALQSGNSQESVTEQDSKDSTYSLSSTLTLSKADYEKHKVYACEVTHQGLSSPVTKSFNRGEC
notes: CLEC12A scFv-Fc, NKG2D A49MI Fab-Fc, human IgG1 Fc; also called AB0237
As to B2, the dissociation constant Kd in [8] came out at 1110 nM; in [9] it was 5.2 nM; in assay [10], 1400 nM; in assay [11] it was 306 nM; in assay [12], 7500 nM; in [13], 238 nM. The figures for the dissociation constant (Kd) in assay [14], in assay [15] and in [16] were 900 nM, 6600 nM and 1.2 nM, respectively. Besides, the off-rate (koff) in [16] turned out to be 0.000933 s⁻¹. For the same molecule, the kon in [16] was found to be 779000 M⁻¹ s⁻¹.
